Results taken from the DeepSol protein solubility set.

Test: soluble on expression in E. coli; label from the status in PepcDB or PDB records

Sequence | soluble on expression in E. coli
MMEMRVGIVGGGLAGLTAAIALAEKGFDVSIIGPRSTDSNSYLAQAGIALPLLEGDSIRIHVLDTIKAGKYINDEEIVWNVISKSSEAHDFLTSHGVTFTGNELEGGHSYPRIFTIKSETGKHIIPILEKHARELDVNFIRGFVEEIGINNGKLAGVFLQGELLKFDAVVIAAGGFSGLYRFTAGVKNNIGLLIGDVALKGVPLRDMEFVQFHPTGFIGKRTYLITEAVRGAGAKLVTGDGERFVNELETRDIVARAIYMKMLEGKGVFLDARGIENFKDRFPYIYSVLRGEGINPEKDLIPITPVAHYTIGGISVDAFYRTRIKGLYAIGESACNGFHGANRLASNSLLECVVSGLEVARTISREKPKREVNDAPYSFNELGDVDSIREVLWNHAGIVRDEWSLREGLRKLKEIEVDERLKLVAKAVIISALKREESRGAHYRKDYPFMRKEFEHSSFFYPNV | soluble
MMEPITKETRFNELPQQIKQKLINIYRSSHQQYLSMEMLKPTKFNLLYSQTQDLQTRNLQKNFKLLVESAEKLKRMWNLNKDEVDFRYLHENLKKSLEEFKEEVMLYKKNEGNTEFLDEIAMTYAMLRNKLESLTKERRA | not soluble
MMETQNVKDTVRQIFTEYLTANGHRKTPERYAILETIYSIDGHFDIDMLYSRMMDQENFRVSRATLYNTIILLINARLIIKHQFGTSSQYEKSYNRETHHHQICTQCGKVTEFQNEELQHAIENTKLSRFQLSHYSLYIYGLCSKCDRANKRKKVSNNNKKEK | not soluble
MMIEPKEKASIGIIGGSGLYDPQILTNVKEIKVYTPYGEPSDNIILGELEGRKVAFLPRHGRGHRIPPHKINYRANIWALKSLGVKWVIAVSAVGSLRLDYKPGDFVVPNQFIDMTKGRTYTFFDGPTVAHVSMADPFCEHLRSIILDSAKDLGITTHDKGTYICIEGPRFSTRAESIVWKEVFKADIIGMTLVPEVNLACEAEMCYSVIGMVTDYDVFADIPVTAEEVTKVMAENTAKVKKLLYEVIRRLPEKPDERKCSCCQALKTALVLEHHHHHHHH | soluble
MMIMERHYTLKEASKILGVSIKTLQRWDKAGKIKCIRTLGGKRRVPESEIKRILGIKDKEQRKIIGYARVSFNAQKDDLERQIQLIKSYAEENGWDIQILKDIGSGLNEKRKNYKKLLKMVMNRKVEKVIIAYPDRLTRFGFETLKEFFKSYGTEIVIINKKHKTPQEELVEDLITIVSHFAGKLYGMHSHKYKKLTKTVKEIVREEDAKEKE | not soluble
MMKDKHGAMNAERRGMGEQRLAERMAELERRLKEVEAENIVLKELAYQSAKRYEQLKQLAKENDELRRQLLQSPWSEKTDKMDEDERPDSWFFRTLRQENAIMPHPERNEK | not soluble
MMKGSKSYTEYSSSFSTDEFGYDQNRSNSYNFNGPCINTDPEMKRKKRVASYNLFATEEKLKSTLKNSFKWIKNKFSGDDNSIRYNV | not soluble
MMKKALLIDDECWLRVQARDASADGRFVFAVRTTGVFCRPSCRSKRALRKNVRFFANAQQALDAGFRPCKRCQPDNARAQQRRLDKIACACRLLEQETPVTLAFLAQAVAMSPFHLHRLFKASTGMTPKGWQQAWRARRLREALAKGEPITAAIYRAGFPDSSSYYRHADQTLGMTAKQFRKGGDNVSVRYALTDWVYGRCLVAESERGICAILPGDSDDALLAELHTLFPSARHEPADALFQQRVRQVVAAINTRDVLLSLPLDIQGTAFQQQVWQALCAIPCGETVSYQQLAATIGKPTAVRAVASACGANKLAMVIPCHRVVRRDGALSGYRWGVRRKAQLLKREAQKEE | not soluble
MMKKKWYIVLTMSGYEEKVKENIEKKVEATGIKNLVGRIVIPEEVVLDATSPSERLILSPKAKLHVNNGKDVNKGDLIAEEPPIYARRSGVIVDVKNVRKIVVETIDRKYTKTYYIPESAGIEPGLRVGTKVKQGLPLSKNEEYICELDGKIVEIERMKKVVVQTPDGEQDVYYIPLDVFDRDRIKKGKEVKQGEMLAEARKFFAKVSGRVEVVDYSTRKEIRIYKTKRRKLFPGYVFVEMIMNDEAYNFVRSVPYVMGFVSSGGQPVPVKDREMRPILRLAGLEEYEEKKKPVKVELGFKVGDMVKIISGPFEDFAGVIKEIDPERQELKVNVTIFGRETPVVLHVSEVEKIE | soluble
MMKLRIEIDGNLEETEIVIKTPTLTDEIADLQRLLQESKAPRLTFYKGTGEYYLDLSEILFFETEGSKIYAHNQKEAYEVRLKLYELESILPRYFNRVSKSTIANIRQIYSVDKSFSGTGTISFYQTHKEVHVSRHYQSLLKENLRNMR | not soluble
MMKSIILIVLDGLGDRPGSDLQNRTPLQAAFRPNLNWLASHGINGIMHPISPGIRCGSDTSHMSLLGYDPKVYYPGRGPFEALGLGMDIRPGDLAFRANFATNRDGVIVDRRAGRENKGNEELADAISLDMGEYSFRVKSGVEHRAALVVSGPDLSDMIGDSDPHREGLPPEKIRPTDPSGDRTAEVMNAYLEEARRILSDHRVNKERVKNGRLPGNELLVRSAGKVPAIPSFTEKNRMKGACVVGSPWLKGLCRLLRMDVFDVPGATGTVGSNYRGKIEKAVDLTSSHDFVLVNIKATDVAGHDGNYPLKRDVIEDIDRAMEPLKSIGDHAVICVTGDHSTPCSFKDHSGDPVPIVFYTDGVMNDGVHLFDELSSASGSLRITSYNVMDILMQLAGRSDKFGSLEHHHHHH | soluble
MMKTLSSGNCTLSVPAKNSYRMVVLGASRVGKSSIVSRFLNGRFEDQYTPTIEDFHRKVYNIRGDMYQLDILDTSGNHPFPAMRRLSILTGDVFILVFSLDNRESFDEVKRLQKQILEVKSCLKNKTKEAAELPMVICGNKNDHGELCRQVPTTEAELLVSGDENCAYFEVSAKKNTNVDEMFYVLFSMAKLPHEMSPALHRKISVQYGDAFHPRPFCMRRVKEMDAYGMVSPFARRPSVNSDLKYIKAKVLREGQARERDKCTIQLEHHHHHH | soluble
MMNADCKTAFGAIEESLLWSAEQRAASLAATLACRPDEGPVWIFGYGSLMWNPALEFTESCTGTLVGWHRAFCLRLTAGRGTAHQPGRMLALKEGGRTTGVAYRLPEETLEQELTLLWKREMITGCYLPTWCQLDLDDGRTVNAIVFIMDPRHPEYESDTRAQVIAPLIAAASGPLGTNAQYLFSLEQELIKLGMQDDGLNDLLVSVKKLLAENYPDGVLRPGFALEHHHHHH | soluble
MMNYNTPKVSIVVPSLNSISYIRECIDSILNQTLKDIEILCIDANSTDGTLEVLKNYEKKDKRLRVIISDKKSYGYQMNLGIKEAKGEYLGIVESDDYIKTNMYERLYEIAKKNDCEVVKGDFYIFAYGKTEYVNVLRNSCEDIYNYKVNWNKDIRIFLGSDGINPIGIYRLDLLRTNQIKLNETPGASYQDNGLWFQIFALAKSIYFINEAFYMLRRDNPNSSVKSKEKVYCACEEYDFIRDFLKKHPDLEKTLAPICALHRFGNYMFTLERIDERYKLDFLKRFSQDFRKILKDKELDENLFGNINMQRINKIIENPVIYYYFSRGARARLQNQLVYRLGKVVVEAKSFNKIIKLPFLMLKICLEHNFEHKVYRSIVQFRPDLKLLPLECYLDYHEALVIKEHLSYKFGKLILLSFKGWYKGKIFILPFMLKKRYKEYKNKMILEHHHHHH | not soluble
MMRNSHTIENFERMPDGETSSLPDITNYQESVDENPVEECSAYSDTIATCSMCLQVAPHSQFFACTYPGCGYALKQKESVKSPTLFYRKERVLCGACAFLGDHAHHKAYLLKADKLAFLTASREIGGKLEMDMEEVCRLDKSHPVDNAMIIKSGGHVELEKISVVSFLSQAKTIEEWHSRHCMVNEMLSTIKYNREQGIDYLRKQSEKVMTLLNNAAQEIKSVSRTLPKQLTNQDKPHTSFGRRQHASQKNTEWANEEYSPFSSTCSESSTSTLHMAKALQSVDDEVTGGFGGFGFGFGASAVNKSLKGQIKSENYTSIAVTRLYKMLIRTEPKETALRRAADYLNELTHSKTEKKAVIEYMEKKHSIKWPEHII | not soluble
MMRWIRHMFAPSAHRSFPPRSMDSIAAAIAASEQLHTGQVMVAVEADLSAAALWRGHGARQRAEQAFAQLRTWDTEANNGVLIYLLLADHAIEVVADRGLRALVPDAAWAEVCRRMQQFLRDGQHEAAVLAGVEAVTELLCAHFPAAAQAQHEDELPNRPHILGLEHHHHHH | soluble
MMTKYGVVGTGYFGAELARFMSKVEGAKITAIYDPVNAAPIAKELNCVATATMEALCSHPDVDCVIIASPNYLHKAPVIAAAKAGKHVFCEKPIALNYQDCKDMVDACKEAGVTFMAGHVMNFFHGVRHAKALIKAGEIGEVTQVHTKRNGFEDVQDEISWKKIRAKSGGHLYHHIHELDCTLFIMDETPSLVSMAAGNVAHKGEKFGDEDDVVLITLEFESGRFATLQWGSSFHYPEHYVLIEGTTGAILIDMQNTAGYLIKAGKKTHFLVHESQAEDDDRRNGNISSEMDGAIAYGKPGKRTPMWLSSIMKLEMQYLHDVINGLEPGEEFAKLLTGEAATNAIATADAATLSSNEGRKVKLTEILGLEHHHHHH | soluble
MMYFISDTHFYHENIINLNPEVRFKGFEIVILTNLLKVLKPEDTLYHLGDFTWHFNDKNEYLRIWKALPGRKILVMGNHDKDKESLKEYFDEIYDFYKIIEHKGKRILLSHYPAKDPITERYPDRQEMVREIYFKENCDLLIHGHVHWNREGIKCACKDYRIECINANVEWNDYKPISEREIDKLISYEKAKN | soluble
MNAFNPTQFRAQFPALADAGVYLDSAATALKPQAVIDATHQFYCLSAGNVHRSQFAQAQRLTAQYEAARAKAARLLNAPDEKSIVWTRGTTEAINMVAQCYARPRLRPGDEIIVSVAEHHANLVPWLMVAQQTGAQVIKLPLNDRRLPDVERLPELITSRSRILALGQMSNVTGGCPDLASAISAAHAAGMVVMVDGAQGAVHFPADVQQLDIDFYAFSAHKLYGPTGIGVLYGKPELLEAMSPWLGGGKMIRDVSFEGFTTQSAPWKLEAGTPNVAGVIGLSAALEWLSDIDIEQAENWSRGLATLAEDALAKRPGFRSFRCQDSSLLAFDFVGVHHGDMVTLLAEYGIALRAGQHCAQPLLAELGVTGTLRASFAPYNTQHDVDALVNAVDRALELLVD | not soluble
MNAIADVQSSRDLRNLPINQVGIKDLRFPITLKTAEGTQSTVARLTMTVYLPAEQKGTHMSRFVALMEQHTEVLDFAQLHRLTAEMVALLDSRAGKISVSFPFFRKKTAPVSGIRSLLDYDVSLTGEMKDGAYGHSMKVMIPVTSLCPCSKEISQYGAHNQRSHVTVSLTSDAEVGIEEVIDYVETQASCQLYGLLKRPDEKYVTEKAYENPKFVEDMVRDVATSLIADKRIKSFVVESENFESIHNHSAYAYIAYP | soluble
MNALEPLFARLARSTFRSRFRLGIKERQYCWDKGAEVIDKHAADFIAQRLAPAHPANDGKQTPMRGHPVFIAQHATATCCRGCLAKWHQIPQGEPLSEAQQQYIVSVIHYWLVIQMNQR | not soluble
MNALKQAVRTYARCHANRDGLAVTTVPGLRTMCVEDPAGDLHSVYRPLVCFVLQGAKRMIVGSEERVFYGGQSVIVAADMPVVGRIVEASSGAPYLAIAVELEMALLREVAAQIGDTCSLRSSGMQTLFAEDTEGAMLDCASRLMHLLDRPDAVPILRPGIMRELHYWLLSGPHGPALRTLADPDSYAGRLAAAIAILRTEYRSRVPVERLAAAAAMSLTAFHKHFKMMTSLTPGQYQKRLRLIEARRLMLDQGFSASNAAFEVGYESVSQFTREYGRLFNMPPKQDALRARAISSIFKHSQADALGAELH | not soluble
MNCVCGSGKTYDDCCGPLLARTRSAASPEALMRSRYAAYALKDFDYIVETTDPERRDLFDHDVNRAWMEESDFLELRVLGSSEKGSRGTVEFIARFRRGGGPEQSHHERSQFRKARGRWYFSEGEAVD | soluble
MNDDLCYKLNYLARLILSKVNEKIKPHGVTQGQLPVLCCLHDAEGQTQAELCKNIQVEQPTMANTLRRMERDGLIFRTASDKDKRQSRVYITERTRPTVEALQEKRDEVVAAMVRHMSPEDLATFTRLLDVATKALENPETE | not soluble
